According to US20240209089A1:
Values joined by “and” are separate entries in the source; they are usually repeats but may differ in a detail not shown here. Equal entries are not always repeated.

Experiments:
[1] = target: CD8α-Fc fusion protein (human); assay: phage ELISA on coated CD8α-Fc, blank control
[2] = target: Fc protein; assay: phage ELISA on coated Fc protein, blank control

Chain of CD8α-Fc fusion protein (human) (chain, as listed by the source): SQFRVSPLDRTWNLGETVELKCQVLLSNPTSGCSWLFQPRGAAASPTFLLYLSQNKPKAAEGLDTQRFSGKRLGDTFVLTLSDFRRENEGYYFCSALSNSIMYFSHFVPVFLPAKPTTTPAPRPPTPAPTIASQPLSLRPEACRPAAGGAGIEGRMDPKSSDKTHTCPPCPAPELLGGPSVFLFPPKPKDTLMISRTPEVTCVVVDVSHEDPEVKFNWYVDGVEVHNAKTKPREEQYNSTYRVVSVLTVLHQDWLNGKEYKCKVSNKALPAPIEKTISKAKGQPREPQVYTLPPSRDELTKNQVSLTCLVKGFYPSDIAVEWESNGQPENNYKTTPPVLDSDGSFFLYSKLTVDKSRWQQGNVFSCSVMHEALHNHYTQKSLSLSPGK

blank phage
OD450 [1]: 0.067 | OD450 [2]: 0.093 and 0.068
